# Where a chain is given by its changes, count along the chain named.
# B1: GT29-21: Ginseng UDP-glycosyltransferase, 442 amino acids, SEQ ID NO: 120 (protein)
# chain: MDNQKGRISIALLPFLANGHISPFFELAKQLAKRNCNVFLCSTPINLSSIKDKDSSASIKLVELHLPSSPDLPPHYHTTNGLPSHLMLPLRNAFETAGPTFSEILKTLNPDLLIYDFNPSWAPEIASSHNIPAVYFLTTAAASSSIGLHAFKNPGEKYPFPDFYDNSNITPEPPSADNMKLLHDFIACFERSCDIILIKSFRELEGKYIDLLSTLSDKTLVPVGPLVQDPMGHNEDPKTEQIINWLDKRAESTVVFVCFGSEYFLSNEELEEVAIGLEISTVNFIWAVRLIEGEKKGILPEGFVQRVGDRGLVVEGWAPQARILGHSSIGGFVSHCGWSSIAESMKFGVPVIAMARHLDQPLNGKLAAEVGVGMEVVRDENGKYKREGIAEVIRKVVVEKSGEVIRRKARELSEKMKEKGEQEIDRALEELVQICKKKKDEQ
# modifications: misc_feature - GT29-21; Panax ginseng
# B2: GT29-22: Ginseng UDP-glycosyltransferase, 442 amino acids, SEQ ID NO: 122 (protein)
# chain: B1 chain with N18H, I329T, S344I
# modifications: misc_feature - GT29-22; Panax ginseng
# B3: GT29-23: Ginseng UDP-glycosyltransferase, 442 amino acids, SEQ ID NO: 124 (protein)
# chain: MDNQEGRISIALLPFLAHGHISPFFELAKQLAKRNCNVFLCSTPINLSSIKNKDSSASIKLVELHLPSSPDLPPHYHTTNGLPSHLMVPLINAFETAGPTFSEILKTLNPDLLIYDFNPSWAPEIASSHNIPAVYFLTTAAASSSIGLHAFKNPGEKYPFPDFYDNSNNTPEPPSADNMKLLHDFIACFERSCDIILIKSFIELEGKYIDLLSTLSDKTLVPVGPLVQDPMGHNEDPKTEQIINWLDKRAESTVVFVCFGSEYFLSNEELEEVAIGLEISMVNFIWAVRLIEGEKKGVLPEGFVQRVGDRGLVVEGWAPHARILGHSSTGGFVSHCGWSSIAESMKFGVPVIAMARHLDQPLNGKLAAEVGVGMEVVRDENGKYKREGIAEVIRKVVVEKSGEVMRRKARELSEKMKEKGEEEIDRAVEELVQICKKKKDAQ
# modifications: misc_feature - GT29-23; Panax ginseng
# B4: GT29-36: Ginseng UDP-glycosyltransferase, 442 amino acids, SEQ ID NO.: 90 (protein)
# chain: B3 chain with E5K, N52D, V88L, I91R, N169I, I202R, H320Q
# modifications: Panax ginseng
# B5: GT29-37: Ginseng UDP-glycosyltransferase, 442 amino acids, SEQ ID NO.: 92 (protein)
# chain: B1 chain with K5E, N18H, D52N, L88V, R91I, I329T
# modifications: Panax ginseng
# B6: GT29-42: Ginseng UDP-glycosyltransferase, 444 amino acids, SEQ ID NO.: 94 (protein)
# chain: MDNQEGRISIALLPFLAHGHISPFFELAKQLAKRNCNVFLCSTPINLSSIKNKDSSASIKLVELHLPSSPDLPPHYHTTNGLPSHLMVPLINAFETAGPTFSEILKTLNPDLLIYDFNPSWAPEIASSHNIPAVYFLTTAAASSSIGLHAFKNPGEKYPFPDFYDNSNNTPEPPSADNMKLLHDFIACFERSCDIILIKSFIELEGKYIDLLSTLSDKTLVPVGPLVQDPMGHNEDPKTEQIINWLDKRAESTVVFVCFGSEYFLSNEELEEVAIGLEISMVNFIWAVRLIEGEKKGVLPEGFVQRVGDRGLVVEGWAPQARILGHSSTGGFVSHCGWSSIMESVKFGVPVIAMARHLDQPLNAKLAAEVGVGMEVMRDENGKYKREAIAEVIRKVVMEKNGEVMRRKARELSEKMKVKGEQEIGRAVEELVQICKKKKQHAQY
# modifications: Panax ginseng
# B7: GT29-43: Ginseng UDP-glycosyltransferase, 442 amino acids, SEQ ID NO.: 96 (protein)
# chain: B1 chain with N18H, R249M, I329T
# modifications: Panax ginseng
# B8: GT29-34: Ginseng UDP-glycosyltransferase, 446 amino acids, SEQ ID NO: 8 (protein)
# chain: MDIEKGRIIIVMLPFLAHGHISPFFELAKHLSKRNCNIFLCSTPINLSSIKNRVSDKDSSASIKLVELHLPSSPDLPPHYHTTNGLPSHLMVPLRNAFETAAPTFSEILKTLNPDLLIYDFNPSWAPEIASSHNIPAVYFLTSAAATSSMGLHAFKNSGEKYPFPDFYDNSNITPEPPSADKMKLFHDFVACFKRSCDIILIKSFRELEGKYIDFLSTLSKKTLVPVGPLVQDPMGHDEDPKTGHLINWLDKRAESTVVFVCFGSEYFPSNEELEELAIGLEISMVSFILAVRFPEGEKKGILPEGFVQRVGDRGLVVEGWAPQARILGHSSTGGFVSHCGWSSIMESVKFGVPVIAMARHLDQPLNAKLAAEVGVGMEVMRDENGKYKREGIAEVIRKVVVEKSGEVMRRKARELSEKMKEKGEEEIDRAVEELVQICKKKKDAQ
# modifications: misc_feature - GT29-34; Panax ginseng
# B9: GT29-33: Ginseng UDP-glycosyltransferase, 448 amino acids, SEQ ID NO: 6 (protein)
# chain: MDIEKGRISIVMLPFLAHGHISPFFELAKHLSKRNCNIFLCSTPINLSSIKNRVSDKDSSASIKLVELHLPSSPDLPPHYHTTNGLPSHLMVPLRNAFETAAPTFSEILKTLNPDLLIYDFNPSWAPEIASSHNIPAVYFLTSAAATSSMGLHAFKNSGEKYPFPDFYDNSNITPEPPSADKMKLFHDFVACFKRSCDIILIKSFRELEGKYIDFLSTLSKKTLVPVGPLVQDPMGHDEDPKTGHLINWLDKRAESTVVFVCFGSEYFPSNEELEELAIGLEISMVSFILAVRFPEGEKKGILPEGFVQRVGDRGLVVEGWAPQSRILGHSSTGGFVSHCGWSSIMESVKFGVPVIAMARHLDQPLNAKLAAEVGVGMEVMRDENGKYKREAIAEVIRKVVMEKNGEVMRRKARELSEKMKVKGEQEIGRAVEELVQICKKKKQHAQY
# modifications: misc_feature - GT29-33; Panax ginseng
# Experiment: In vitro transglycosylation at C-3, Rd as glycosyl acceptor, UDP-xylose as donor
# Assay type: biochemical
# Conditions: crude enzyme (E. coli lysate supernatant); TLC, FIG. 14
row,Molecule,product formation from Rd and UDP-xylose (replacement of second glucose at C-3 with xylose)
1,B1,can all catalyze the replacement of the second glucose at C-3 position of Rd with xylose
2,B2,can all catalyze the replacement of the second glucose at C-3 position of Rd with xylose
3,B3,can all catalyze the replacement of the second glucose at C-3 position of Rd with xylose
4,B4,can all catalyze the replacement of the second glucose at C-3 position of Rd with xylose
5,B5,can all catalyze the replacement of the second glucose at C-3 position of Rd with xylose
6,B6,can all catalyze the replacement of the second glucose at C-3 position of Rd with xylose
7,B7,can all catalyze the replacement of the second glucose at C-3 position of Rd with xylose

# Experiment: In vitro transglycosylation at C-3, Rh2 as glycosyl acceptor, UDP-glucose as donor
# Assay type: biochemical
# Conditions: crude enzyme (E. coli lysate supernatant); TLC, FIG. 13, FIG. 15
# Text: (§1) Cell lysate of recombinant E. coli with empty vector pET28a was used as a control.
row,Molecule,product formation from Rh2 and UDP-glucose (Rg3)
1,B1,can all catalyze the extension of a glucosyl at the C-3 glycosyl of Rh2 to generate Rg3
2,B2,can all catalyze the extension of a glucosyl at the C-3 glycosyl of Rh2 to generate Rg3
3,B3,can all catalyze the extension of a glucosyl at the C-3 glycosyl of Rh2 to generate Rg3
4,B4,can all catalyze the extension of a glucosyl at the C-3 glycosyl of Rh2 to generate Rg3
5,B5,can all catalyze the extension of a glucosyl at the C-3 glycosyl of Rh2 to generate Rg3
6,B6,can all catalyze the extension of a glucosyl at the C-3 glycosyl of Rh2 to generate Rg3
7,B7,can all catalyze the extension of a glucosyl at the C-3 glycosyl of Rh2 to generate Rg3

# Experiment: In vitro transglycosylation at C-20, CK as glycosyl acceptor, UDP-glucose as donor
# Assay type: biochemical
# Conditions: crude enzyme (E. coli lysate supernatant); TLC/HPLC, FIG. 2, 3, 12, 16
# Text: as §1
# As shown in FIG. 16: Protopanaxadiol Ginsenoside CK is used as a glycosyl acceptor, and UDP-glucose is used as a glycosyl donor.
row,Molecule,product formation from CK and UDP-glucose (Gypenoside LXXV)
1,B8,can catalyze the formation of a new product

# Experiment: In vitro transglycosylation at C-20, Rd as glycosyl acceptor, UDP-glucose as donor
# Assay type: biochemical
# Conditions: crude enzyme (E. coli lysate supernatant); TLC/HPLC, FIG. 2, 3, 11
# Text: as §1
row,Molecule,product formation from Rd and UDP-glucose (Rb1)
1,B8,can catalyze the formation of Rb1
2,B9,can catalyze the formation of Rb1

# Experiment: In vitro transglycosylation at C-20, CK as glycosyl acceptor, UDP-arabinose as donor
# Assay type: biochemical
# Conditions: crude enzyme (E. coli lysate supernatant); TLC, FIG. 17
row,Molecule,product formation from CK and UDP-arabinose (Ginsenoside F3)
1,B8,can catalyze the first glycosyl of C-20 of CK to extend an arabinosyl to generate Ginsenoside F3
2,B9,can catalyze the first glycosyl of C-20 of CK to extend an arabinosyl to generate Ginsenoside F3

# Source: patent US12356911B2, “Group of UDP-glycosyltransferase for catalyzing carbohydrate chain elongation and application thereof” (GSYNBIOT (SHANGHAI) CO., LTD, priority 2017, dated 2025)
